In article PMC11841054 (Journal of Bacteriology, 2025) one finds stoichiometry N data, which are given here for one substance.

For this assay, the target named is GlnA3Mt (Rv1878), gamma-glutamylspermine synthetase of Mycobacterium tuberculosis (Mycobacterium tuberculosis H37Rv) (UniProt O07752). The assay is described as follows: SEC.

For “GlnA3Mt (Rv1878), gamma-glutamylspermine synthetase of Mycobacterium tuberculosis (from UniProt O07752 1-450) (enzyme)”, the stoichiometry N stood at 12.
